Reference: doi:10.1101/2024.03.12.584703

Molecular target: VCAP-102 capsid (adeno-associated virus 9) (UniProt Q6JC40)
Experiment: SPR

B1: His-tagged human ALPL (recombinant) (receptor)
chain: LVPEKEKDPKYWRDQAQETLKYALELQKLNTNVAKNVIMFLGDGMGVSTVTAARILKGQLHHNPGEETRLEMDKFPFVALSKTYNTNAQVPDSAGTATAYLCGVKANEGTVGVSAATERSRCNTTQGNEVTSILRWAKDAGKSVGIVTTTRVNHATPSAAYAHSADRDWYSDNEMPPEALSQGCKDIAYQLMHNIRDIDVIMGGGRKYMYPKNKTDVEYESDEKARGTRLDGLDLVDTWKSFKPRYKHSHFIWNRTELLTLDPHNVDYLLGLFEPGDMQYELNRNNVTDPSLSEMVVVAIQILRKNPKGFFLLVEGGRIDHGHHEGKAKQALHEAVEMDRAIGQAGSLTSSEDTLTVVTADHSHVFTFGGYTPRGNSIFGLAPMLSDTDKKPFTAILYGNGPGYKVVGGERENVSMVDYAHNNYQAQSAVPLRHETHGGEDVAVFSKGPMAHLLHGVHEQNYVPHVMAYAACIGANLGHCAPAS
Kd: 0.02 µM
